From patent US20240158489A1 (published 2024)

Columns and labels:
Test in all cases: -; FIG. 2B
[1] = target: T1, rabbit ANG2 (rabbit, UniProt G1T9B3 19-496)
T1 chain: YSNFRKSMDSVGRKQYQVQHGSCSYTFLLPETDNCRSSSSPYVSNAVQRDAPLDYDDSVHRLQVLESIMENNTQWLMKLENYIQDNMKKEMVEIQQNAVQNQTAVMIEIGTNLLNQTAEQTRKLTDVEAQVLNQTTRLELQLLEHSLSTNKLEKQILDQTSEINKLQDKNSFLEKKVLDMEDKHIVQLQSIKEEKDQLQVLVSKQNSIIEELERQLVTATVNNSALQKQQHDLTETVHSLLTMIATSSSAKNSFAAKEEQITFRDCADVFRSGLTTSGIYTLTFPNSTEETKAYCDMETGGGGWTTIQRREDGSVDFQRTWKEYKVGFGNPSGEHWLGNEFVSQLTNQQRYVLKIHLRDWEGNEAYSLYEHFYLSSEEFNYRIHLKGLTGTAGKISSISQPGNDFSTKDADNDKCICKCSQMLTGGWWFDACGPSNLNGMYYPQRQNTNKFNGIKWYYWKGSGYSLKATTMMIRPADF

[2] = target: T2, rat ANG2 (rat, UniProt O35462 19-496)
T2 chain: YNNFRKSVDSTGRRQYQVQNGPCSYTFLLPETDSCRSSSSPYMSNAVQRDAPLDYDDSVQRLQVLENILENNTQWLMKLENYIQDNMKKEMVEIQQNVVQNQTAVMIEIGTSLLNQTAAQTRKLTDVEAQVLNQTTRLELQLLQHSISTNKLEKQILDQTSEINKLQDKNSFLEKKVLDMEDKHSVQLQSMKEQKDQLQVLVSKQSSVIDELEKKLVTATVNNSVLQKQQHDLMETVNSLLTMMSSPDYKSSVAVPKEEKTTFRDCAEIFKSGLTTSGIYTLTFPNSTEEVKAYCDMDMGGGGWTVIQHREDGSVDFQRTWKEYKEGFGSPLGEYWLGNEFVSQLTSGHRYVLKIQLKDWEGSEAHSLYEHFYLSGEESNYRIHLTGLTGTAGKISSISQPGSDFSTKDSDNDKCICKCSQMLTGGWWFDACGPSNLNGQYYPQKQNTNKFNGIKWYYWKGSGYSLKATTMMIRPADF

[3] = target: Rat VEGF164
[4] = target: Rabbit VEGF 165
[5] = target: Cyno ANG-2 (monkey)

B1: anti-ANG-2×VEGF bispecific antibody ABP201 (bispecific antibody)
heavy: EVQLLESGGGLVQPGGSLRLSCAASGFTFSWYEMYWVRQAPGKGLEWVSSISPSGGWTMYADSVKGRFTISRDNSKNTLYLQMNSLRAEDTAVYYCATPLYSSDYLSAGDIWGQGTMVTVSSASTKGPSVFPLAPSSKSTSGGTAALGCLVKDYFPEPVTVSWNSGALTSGVHTFPAVLQSSGLYSLSSVVTVPSSSLGTQTYICNVNHKPSNTKVDKRVEPKSCDKTHTCPPCPAPEAAGGPSVFLFPPKPKDTLMISRTPEVTCVVVDVSHEDPEVKFNWYVDGVEVHNAKTKPREEQYNSTYRVVSVLTVLHQDWLNGKEYKCKVSNKALPAPIEKTISKAKGQPREPQVYTLPPSREEMTKNQVSLTCLVKGFYPSDIAVEWESNGQPENNYKTTPPVLDSDGSFFLYSKLTVDKSRWQQGNVFSCSVMHEALHNAYTQKSLSLSPGKGGGGSGGGGSEIVLTQSPGTLSLSPGERATLSCRASQSITGSYLAWYQQKPGQAPRLLITGASSWATGIPDRFSGSGSGTDFTLTISRLEPEDFAVYYCQQYSSSPITFGCGTRLEIKGGGGSGGGGSGGGGSGGGGSQVQLVESGGGVVQPGRSLRLSCAASGFTFTNYGMHWVRQAPGKCLEWVAVISHEGNNKYYVDSVKGRFTISRDNSKNTLYLQMNSLRAEDTAVYYCAREGIDFWSGLNWFDPWGQGTLVTVS
light: EIVLTQSPATLSLSPGERATLSCRASQSVHSSYLAWYQQKPGQAPRLLIYGASSRATGIPDRFSGSGSGTDFTLTISRLEPEDFAVYYCQQSYRTPSFGQGTRLEIKRTVAAPSVFIFPPSDEQLKSGTASVVCLLNNFYPREAKVQWKVDNALQSGNSQESVTEQDSKDSTYSLSSTLTLSKADYEKHKVYACEVTHQGLSSPVTKSFNRGEC
[1]
  Kd: 30.4 nM
[2]
  Kd: 40.5 nM

B2: ABP 201 (bispecific antibody)
heavy: EVQLLESGGGLVQPGGSLRLSCAASGFTFSWYEMYWVRQAPGKGLEWVSSISPSGGWTMYADSVKGRFTISRDNSKNTLYLQMNSLRAEDTAVYYCATPLYSSDYLSAGDIWGQGTMVTVSSASTKGPSVFPLAPSSKSTSGGTAALGCLVKDYFPEPVTVSWNSGALTSGVHTFPAVLQSSGLYSLSSVVTVPSSSLGTQTYICNVNHKPSNTKVDKRVEPKSCDKTHTCPPCPAPEAAGGPSVFLFPPKPKDTLMISRTPEVTCVVVDVSHEDPEVKFNWYVDGVEVHNAKTKPREEQYNSTYRVVSVLTVLHQDWLNGKEYKCKVSNKALPAPIEKTISKAKGQPREPQVYTLPPSREEMTKNQVSLTCLVKGFYPSDIAVEWESNGQPENNYKTTPPVLDSDGSFFLYSKLTVDKSRWQQGNVFSCSVMHEALHNAYTQKSLSLSPGKGGGGSGGGGSEIVLTQSPGTLSLSPGERATLSCRASQSITGSYLAWYQQKPGQAPRLLITGASSWATGIPDRFSGSGSGTDFTLTISRLEPEDFAVYYCQQYSSSPITFGCGTRLEIKGGGGSGGGGSGGGGSGGGGSQVQLVESGGGVVQPGRSLRLSCAASGFTFTNYGMHWVRQAPGKCLEWVAVISHEGNNKYYVDSVKGRFTISRDNSKNTLYLQMNSLRAEDTAVYYCAREGIDFWSGLNWFDPWGQGTLVTVS
light: EIVLTQSPATLSLSPGERATLSCRASQSVHSSYLAWYQQKPGQAPRLLIYGASSRATGIPDRFSGSGSGTDFTLTISRLEPEDFAVYYCQQSYRTPSFGQGTRLEIKRTVAAPSVFIFPPSDEQLKSGTASVVCLLNNFYPREAKVQWKVDNALQSGNSQESVTEQDSKDSTYSLSSTLTLSKADYEKHKVYACEVTHQGLSSPVTKSFNRGEC
[3]
  Kd: 0.62 nM
[4]
  Kd: 2.06 nM
[5]
  Kd: 29.8 nM
